Data on three substances can be found in patent US20250345467A1, “DENDRIMER FOR THERAPY AND IMAGING” (priority 2018, published 2025).

Data set [1] in a line: Organ biodistribution, clearance and health monitoring in the prostate cancer xenograft study. It is filed as in vivo, Balb/C nude mice. Particulars: Zr-89 labelled, mice bearing DU-145 or PC3 xenografts, whole study (9 days). The procedure: The accumulation of two different dendrimer constructs in two different murine xenograft models of prostate cancer (DU145 and PC3 cell lines) was investigated. The two different constructs were compound 1b and 3 which are pre-conjugated with DFO, which were labelled with 89Zr for subsequent imaging studies. The biodistribution was measured by PET-CT out to 9 days in two different tumour xenografts and then validated by ex vivo gamma scintillation of excised organs at day 9.
Dendrimers were labelled and purified, validated by radioTLC prior to injection into the animals. Imaging was conducted in a cohort of n=4 mice for each cell line and each dendrimer. Standard health of the mice was monitored by score sheet and mouse weight over the complete timeframe of the study.
Healthy male Balb/C nude mice (˜20 g) from 8 weeks old were obtained from the ARC and used for this study. Mice were imported into the animal holding facility and monitored for 1 week prior to the study in order to acclimatise to the environment prior to injection of cells. […]
Mice (n=4 per group) bearing DU-145 or PC3 xenografts were injected with Zr-89 labelled dendrimers (compounds 1b and 3) via tail-vein. […] At 216 hrs post-injection, the organs were removed and signal intensity quantified by ex vivo gamma analysis. Faecal pellets were also measured for activity at this timepoint. […]

The test system of data set [2] is spontaneous gliomas (high grade glioma mouse model). Description: PET-MRI tumour imaging study, glioblastoma. Particulars: Zr-89 radiolabelled, approximately 5 MBq; for % ID/g at 40 hrs: 40 hrs post-injection; for % ID/g at 5 days: 5 days post-injection. It counts as in vivo, mice. The text has this:
The aim of this study was to assess the level of accumulation of example radionuclide-containing dendrimers in mice bearing spontaneous gliomas. This model provides a route to effectively assess the ability to both cross the blood-brain-barrier (BBB) as well as accumulate in tumour tissue.
Gt(ROSA)26So^rtm14(CAG-tdTomato)Hze 20023653 was crossed with Pten^tm2MAK; Rb1^tm2Bm; Trp53^tm1Bm; Tg(GFAP-cre/Esr1*,−lacZ)BSbk^31,44-47 (alleles) and backcrossed six generations to latter mice to generate Gt(ROSA)26Sor^tm14(CAG-tdTomato)Hze; Pten^tm2MAK; Rb1^tm2Bm; Trp53^tm1Bm; Tg(GFAP-cre/Esr1*,−lacZ)BSbk (high grade glioma mouse model; HGG). Mice were maintained on a predominantly FVB/NJ background with contributions from 129/SV and C57Bl6. To induce Cre recombinase and thereby tumor formations, 20 mg/ml Tamoxifen (Sigma-Aldrich) dissolved in corn oil (Sigma-Aldrich) was injected intraperitoneally. Up to 200 mg/kg body weight was administered weekly for 3 consecutive weeks after postnatal day (P) 30 (range P30-44). Animal's health and welfare was monitored up to twice daily and animals were euthanized based on morbidity requirement.
91 μL Zr-89 oxalate in 1 M oxalic acid (Perkin Elmer) was diluted with 78 μL 1 M Na2CO3 to neutralize pH. Dendrimer 1b was dissolved in 0.5 M HEPES (pH 7.5). 33 μL neutralized Zr-89 stock (approximately 15 MBq) was added to the dendrimer (146 μg) to give 100-fold excess of the dendrimer to Zr-89 and labelling was allowed to proceed at room temperature for 1 hour. The sample was then buffer exchanged into phosphate-buffered saline using Zeba Spin Desalting Columns (7 kDa MWCO, Thermo Fisher Scientific). 1 μL sample of the solution was taken and spotted on thin layer chromatography paper (Agilent iTLC-SG Glass microfiber chromatography paper impregnated with silica gel) and run with 50 mM diethylenetriaminepentaacetic acid (DTPA) as the eluent. Control experiments were conducted to monitor the elution behaviour of unbound Zr-89 for quality control. Plates were then imaged on a Bruker In Vivo MS FX Pro imaging system using a radioisotopic phosphor screen. ˜100% chelation of the Zr-89 was observed and so the dendrimer was used directly for the imaging experiments.
Anaesthetized mice, with a cannulated tail vein, were placed in a combined MRI/PET system, comprising a 300 mm bore 7T ClinScan, running Siemens VB17, and removable PET insert containing 3 rings of 16 detector blocks with 15×15 LSO crystals (1.6×1.6×10 mm) per block, at the centre of the magnet bore operating under Siemens Inveon Acquisition Workplace (IAW) (Bruker, Germany). A 23 mm ID mouse head MRI RF coil inside the PET ring was used to acquire mouse head images simultaneously with the PET acquisition.
Mice were injected with approximately 5 MBq of Zr-89 labelled dendrimer 1b and imaged 40 hours and 5 days post-injection. At each imaging point a dose of Gadovist® contrast agent was injected to obtain pre- and post-contrast T1, T2, and dynamic image data. The injection dose at each timepoint was comprised of 50 μl Gadovist® diluted with PBS (1×) to give a total volume of 200 μl. This volume was injected via a catheter inserted into the tail vein in a slow bolus injection. Where collected, dynamic PET data acquisition was performed for 60 min. Prior to injection, fast localizer images and a 3D T1 weighted volumetric interpolated breath-hold examination VIBE sequence was acquired. Dynamic MRI images were acquired with a Gradient echo FLASH sequence, with 3 slices acquired each 2 seconds interval. The PET acquisition and dynamic MRI imaging was started simultaneously, a 2-3 min baseline period acquired and then the solution was injected. Following 15 min of dynamic MRI scanning, the T1 weighted VIBE was repeated, structural T2 weighted spin echo images acquired and a […] T1 weighted VIBE_DIXON sequence acquired to generate a 3D T1 map. […]

The subject of data set [3] is DU-145 subcutaneous tumours. Description: Therapeutic study with radionuclide-containing dendrimers, DU-145 subcutaneous tumours. The following applies: FIG. 20. It is filed as in vivo, Balb/C nude mice. The text has this:
Healthy male Balb/C nude mice (˜20 g) from 8 weeks old were obtained from the ARC and used for this study. Mice were imported into the animal holding facility and monitored for 1 week prior to the study in order to acclimatise to the environment prior to injection of cells. All animals were provided with free access to food and water before and during the imaging experiments which were approved by the Animal Ethics Committee.
The following compounds were used in the study: • Example 4b • Example 5 • Jevtana® (cabazitaxel) • Comparative example A: a non-radionuclide-containing dendrimer, which is BHALys[Lys]32[α-DGA-Cabazitaxel]32†[ε-PEG˜2100]32‡. […] The actual mean number of PEG˜2100 groups attached to the BHALys[Lys]32 was determined experimentally by ^1H NMR. […]
78 mice were injected with 4×10^6 DU-145 cells in Matrigel into the right flank to induce subcutaneous tumours. Tumour volume and body mass was monitored twice per week before mice with evident tumour growth (approximately […] in volume, tumour volume=½ (length×width^2)) were randomly assigned to groups and injected with compounds according to the schedule outlined in the table below, at day 0, 7 and 14. Following injections, the mice were monitored three times per week for tumour volume and body mass. […]

With “BHALys[Lys]32[(α-DGA-CTX)31(α-DFO)1(ε-PEG2000)32] [Compound 3]”, the adverse health effects entry in data set [1] was “no adverse health effects”.
Regarding “BHALys[Lys]32[(α-TDA-DTX)30(α-DFO)2(ε-PEG2000)32] [Compound 1b]”, the adverse health effects entry in data set [1] is “no adverse health effects”. Also, the “% ID/g at 40 hrs” value in data set [2] (Brain (minus tumour)) was found to be 2.0 % ID/g; in data set [2] (Tumour), 4.3 % ID/g; in data set [2] (Vascalature) it was 2.3 % ID/g. Besides, the “% ID/g at 5 days” value in data set [2] (Brain (minus tumour)) turned out to be 1.5 % ID/g; in data set [2] (Tumour) it was 4.0 % ID/g; in data set [2] (Vascalature), 2.0 % ID/g.
For the substance “BHALys[Lys]32[(α-DGA-CTX)27(α-DOTA)2(ε-PEG2000)32] [Compound 4b]”, in data set [3] (group 4: higher dose, 4b 8 mg/kg (6 MBq) day 0, then Comparative Example A 8 mg/kg days 7 and 14), the “suppression of tumour growth, ranking among groups” value is on record as “most effective”. Moreover, the “suppression of tumour growth” value in data set [3] (groups 4 and 7: Lu-177 labelled 4b 8 or 5 mg/kg (6 MBq) day 0, then Comparative Example A days 7 and 14) is recorded as “effective in suppressing tumour growth”.
